Source: publication PMC9352680, “A comprehensive thermodynamic model for RNA binding by the Saccharomyces cerevisiae Pumilio protein PUF4”

Target: T1, PUF4 RNA-binding domain (Saccharomyces cerevisiae, UniProt P25339 537-888)
T1 sequence: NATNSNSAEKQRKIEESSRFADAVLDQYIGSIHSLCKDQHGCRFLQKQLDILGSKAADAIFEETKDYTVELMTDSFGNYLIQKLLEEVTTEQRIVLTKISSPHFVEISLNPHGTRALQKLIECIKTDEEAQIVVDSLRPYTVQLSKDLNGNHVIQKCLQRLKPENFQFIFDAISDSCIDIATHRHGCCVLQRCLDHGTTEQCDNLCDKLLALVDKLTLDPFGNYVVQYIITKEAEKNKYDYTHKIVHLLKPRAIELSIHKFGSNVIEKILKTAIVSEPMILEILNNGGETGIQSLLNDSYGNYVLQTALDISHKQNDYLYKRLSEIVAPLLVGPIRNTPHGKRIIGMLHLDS
Assay: Mg; RNA-MaP; 20 mM Na-HEPES pH 7.4, 30 mM KOAc, 0.75 mM MgCl2, 0.1% Tween-20, 5% glycerol, 0.1 mg/mL BSA, 2 mM DTT; 25 C; 0.0125-409.6 nM protein
Conditions: tags: N-His6-TEV cleaved; C-SNAP kept, Cy3B-labelled; label: tethered on chip by stalled RNA polymerase

| Binder | Kd |
| --- | --- |
| UCUCUUUGUAAUGCUUUCUCUU (ssRNA) [Ic_S1_P5E.1_K5.1_C5.1_H5.1_A5.1_[T5A]_[A7G]_F5.1_[T8C]_[A10T]_T5.1] | 181 nM |
| UCUCUUUGUAUGGUAUUCUCUU (ssRNA) [Ic_S1_P5E.1_K5.1_C5.1_H5.1_A5.1_[T6G]_[A7G]_F5.1_[T9A]_[A10T]_T5.1] | 13.3 nM |
| UCUCUUUGUAGUUCCCUCUCUU (ssRNA) [Ic_S1_P5E.1_K5.1_C5.1_H5.1_A5.1_[T5G]_[A7T]_F5.1_[T8C]_[T9C]_[A10C]_T5.1] | 1650 nM |
| UCUCUUUGUACGAAUUUCUCUU (ssRNA) [Ic_S1_P5E.1_K5.1_C5.1_H5.1_A5.1_[T5C]_[T6G]_F5.1_[T8A]_[A10T]_T5.1] | 693 nM |
| UCUCUUUCUGUAUAUCUCUU (ssRNA) [Ib_S1_P3E.1_K3.1_C3.1_H3.1_[G2C]_[A4G]_A3.1_F3.1_T3.1] | 27.6 nM |
| UCUCUUUGUAACUUGUUCUCUU (ssRNA) [Ic_S1_P5E.1_K5.1_C5.1_H5.1_A5.1_[T5A]_[T6C]_[A7T]_F5.1_[T9G]_[A10T]_T5.1] | 49.4 nM |
| UCUCUUUGUAUAGCUCUCUCUU (ssRNA) [Ic_S1_P5E.1_K5.1_C5.1_H5.1_A5.1_[T6A]_[A7G]_F5.1_[T8C]_[A10C]_T5.1] | 111 nM |
| UCUCUUUGUACAAACUUCUCUU (ssRNA) [Ic_S1_P5E.1_K5.1_C5.1_H5.1_A5.1_[T5C]_[T6A]_F5.1_[T8A]_[T9C]_[A10T]_T5.1] | 93.1 nM |
| UCUCUUUGUAUCUCUGUCUCUU (ssRNA) [Ic_S1_P5E.1_K5.1_C5.1_H5.1_A5.1_[T6C]_[A7T]_F5.1_[T8C]_[A10G]_T5.1] | 58.6 nM |
| UCUCUUUGUAUAAAAAUCUCUU (ssRNA) [Ic_S1_P5E.1_K5.1_C5.1_H5.1_A5.1_[T6A]_F5.1_[T8A]_[T9A]_T5.1] | 42 nM |
| UCUCUUUGUAAUGUUUUCUCUU (ssRNA) [Ic_S1_P5E.1_K5.1_C5.1_H5.1_A5.1_[T5A]_[A7G]_F5.1_[A10T]_T5.1] | 118 nM |
| UCUCUUUGUAUGUCCCUCUCUU (ssRNA) [Ic_S1_P5E.1_K5.1_C5.1_H5.1_A5.1_[T6G]_[A7T]_F5.1_[T8C]_[T9C]_[A10C]_T5.1] | 125 nM |
| UCUCUUUGUACCAAUCUCUCUU (ssRNA) [Ic_S1_P5E.1_K5.1_C5.1_H5.1_A5.1_[T5C]_[T6C]_F5.1_[T8A]_[A10C]_T5.1] | 119 nM |
| UCUCUUUGUAAUUUCGUCUCUU (ssRNA) [Ic_S1_P5E.1_K5.1_C5.1_H5.1_A5.1_[T5A]_[A7T]_F5.1_[T9C]_[A10G]_T5.1] | 92.7 nM |
| UCUCUUUGUAAGUUAAUCUCUU (ssRNA) [Ic_S1_P5E.1_K5.1_C5.1_H5.1_A5.1_[T5A]_[T6G]_[A7T]_F5.1_[T9A]_T5.1] | 66.4 nM |
| UCUCUUUGUAUAUAAUCUCUU (ssRNA) [Ia_S1_P4E.1_K4.1_C4.1_H4.1_A4.1_F4.1_[T8A]_T4.1] | 4.12 nM |
| UCUCUUUCUCUAUAUCUCUU (ssRNA) [Ib_S1_P3E.1_K3.1_C3.1_H3.1_[G2C]_[A4C]_A3.1_F3.1_T3.1] | > 2300 nM |
| UCUCUUUGUAUCUAUAUCUCUU (ssRNA) [Ic_S1_P5E.1_K5.1_C5.1_H5.1_A5.1_[T6C]_[A7T]_F5.1_[T8A]_T5.1] | 11.5 nM |
| UCUCUUUGUAUGUGCCUCUCUU (ssRNA) [Ic_S1_P5E.1_K5.1_C5.1_H5.1_A5.1_[T6G]_[A7T]_F5.1_[T8G]_[T9C]_[A10C]_T5.1] | 838 nM |
| UCUCUUUGUAUCUUGAUCUCUU (ssRNA) [Ic_S1_P5E.1_K5.1_C5.1_H5.1_A5.1_[T6C]_[A7T]_F5.1_[T9G]_T5.1] | 72.1 nM |
| UCUCUUUGUACCCCAAUCUCUU (ssRNA) [Ic_S1_P5E.1_K5.1_C5.1_H5.1_A5.1_[T5C]_[T6C]_[A7C]_F5.1_[T8C]_[T9A]_T5.1] | 1350 nM |
| UCUCUUUGUAAUUUGCUCUCUU (ssRNA) [Ic_S1_P5E.1_K5.1_C5.1_H5.1_A5.1_[T5A]_[A7T]_F5.1_[T9G]_[A10C]_T5.1] | 81.9 nM |
| UCUCUUUGUAUACGACUCUCUU (ssRNA) [Ic_S1_P5E.1_K5.1_C5.1_H5.1_A5.1_[T6A]_[A7C]_F5.1_[T8G]_[T9A]_[A10C]_T5.1] | 49 nM |
| UCUCUUUGUACCAUCCUCUCUU (ssRNA) [Ic_S1_P5E.1_K5.1_C5.1_H5.1_A5.1_[T5C]_[T6C]_F5.1_[T9C]_[A10C]_T5.1] | 12.5 nM |
| UCUCUUUGUACAUUACUCUCUU (ssRNA) [Ic_S1_P5E.1_K5.1_C5.1_H5.1_A5.1_[T5C]_[T6A]_[A7T]_F5.1_[T9A]_[A10C]_T5.1] | 0.694 nM |

| Binder | Kd |
| --- | --- |
| UCUCUUUGUAAAUCAGUCUCUU (ssRNA) [Ic_S1_P5E.1_K5.1_C5.1_H5.1_A5.1_[T5A]_[T6A]_[A7T]_F5.1_[T8C]_[T9A]_[A10G]_T5.1] | 26.1 nM |
| UCUCUUUGUAAUCAGCUCUCUU (ssRNA) [Ic_S1_P5E.1_K5.1_C5.1_H5.1_A5.1_[T5A]_[A7C]_F5.1_[T8A]_[T9G]_[A10C]_T5.1] | 1300 nM |
| UCUCUUUCUUUAUAUCUCUU (ssRNA) [Ib_S1_P3E.1_K3.1_C3.1_H3.1_[G2C]_[A4T]_A3.1_F3.1_T3.1] | > 2300 nM |
| UCUCUUUGUAGCAUACUCUCUU (ssRNA) [Ic_S1_P5E.1_K5.1_C5.1_H5.1_A5.1_[T5G]_[T6C]_F5.1_[T9A]_[A10C]_T5.1] | 8.64 nM |
| UCUCUUUGUAAUACCUUCUCUU (ssRNA) [Ic_S1_P5E.1_K5.1_C5.1_H5.1_A5.1_[T5A]_F5.1_[T8C]_[T9C]_[A10T]_T5.1] | 690 nM |
| UCUCUUUGUAACACCUUCUCUU (ssRNA) [Ic_S1_P5E.1_K5.1_C5.1_H5.1_A5.1_[T5A]_[T6C]_F5.1_[T8C]_[T9C]_[A10T]_T5.1] | 621 nM |
| UCUCUUUGUAAUUCCUUCUCUU (ssRNA) [Ic_S1_P5E.1_K5.1_C5.1_H5.1_A5.1_[T5A]_[A7T]_F5.1_[T8C]_[T9C]_[A10T]_T5.1] | 448 nM |
| UCUCUUUGUACUGCACUCUCUU (ssRNA) [Ic_S1_P5E.1_K5.1_C5.1_H5.1_A5.1_[T5C]_[A7G]_F5.1_[T8C]_[T9A]_[A10C]_T5.1] | 724 nM |
| UCUCUUUGUAUCAUGCUCUCUU (ssRNA) [Ic_S1_P5E.1_K5.1_C5.1_H5.1_A5.1_[T6C]_F5.1_[T9G]_[A10C]_T5.1] | 11.3 nM |
| UCUCUUUGUAAACCGCUCUCUU (ssRNA) [Ic_S1_P5E.1_K5.1_C5.1_H5.1_A5.1_[T5A]_[T6A]_[A7C]_F5.1_[T8C]_[T9G]_[A10C]_T5.1] | 625 nM |
| UCUCUUUGUACGUGUUUCUCUU (ssRNA) [Ic_S1_P5E.1_K5.1_C5.1_H5.1_A5.1_[T5C]_[T6G]_[A7T]_F5.1_[T8G]_[A10T]_T5.1] | 98.8 nM |
| UCUCUUUGUAUGUAAGUCUCUU (ssRNA) [Ic_S1_P5E.1_K5.1_C5.1_H5.1_A5.1_[T6G]_[A7T]_F5.1_[T8A]_[T9A]_[A10G]_T5.1] | 446 nM |
| UCUCUUUGUAAUAACUUCUCUU (ssRNA) [Ic_S1_P5E.1_K5.1_C5.1_H5.1_A5.1_[T5A]_F5.1_[T8A]_[T9C]_[A10T]_T5.1] | 1100 nM |
| UCUCUUUUUGUAUAUCUCUU (ssRNA) [Ib_S1_P3E.1_K3.1_C3.1_H3.1_[G2T]_[A4G]_A3.1_F3.1_T3.1] | 25.1 nM |
| UCUCUUUGUAGCUUGAUCUCUU (ssRNA) [Ic_S1_P5E.1_K5.1_C5.1_H5.1_A5.1_[T5G]_[T6C]_[A7T]_F5.1_[T9G]_T5.1] | 651 nM |
| UCUCUUUGUACAAUCUUCUCUU (ssRNA) [Ic_S1_P5E.1_K5.1_C5.1_H5.1_A5.1_[T5C]_[T6A]_F5.1_[T9C]_[A10T]_T5.1] | 25.9 nM |
| UCUCUUUGUAUACGUUUCUCUU (ssRNA) [Ic_S1_P5E.1_K5.1_C5.1_H5.1_A5.1_[T6A]_[A7C]_F5.1_[T8G]_[A10T]_T5.1] | 43.4 nM |
| UCUCUUUGUAUACCCGUCUCUU (ssRNA) [Ic_S1_P5E.1_K5.1_C5.1_H5.1_A5.1_[T6A]_[A7C]_F5.1_[T8C]_[T9C]_[A10G]_T5.1] | 675 nM |
| UCUCUUUGUAUCGAUCUCUCUU (ssRNA) [Ic_S1_P5E.1_K5.1_C5.1_H5.1_A5.1_[T6C]_[A7G]_F5.1_[T8A]_[A10C]_T5.1] | 1870 nM |
| UCUCUUUGUACUGUGUUCUCUU (ssRNA) [Ic_S1_P5E.1_K5.1_C5.1_H5.1_A5.1_[T5C]_[A7G]_F5.1_[T9G]_[A10T]_T5.1] | 27.2 nM |
| UCUCUUUGUACCCCUCUCUCUU (ssRNA) [Ic_S1_P5E.1_K5.1_C5.1_H5.1_A5.1_[T5C]_[T6C]_[A7C]_F5.1_[T8C]_[A10C]_T5.1] | 1240 nM |
| UCUCUUUGUACAUCCAUCUCUU (ssRNA) [Ic_S1_P5E.1_K5.1_C5.1_H5.1_A5.1_[T5C]_[T6A]_[A7T]_F5.1_[T8C]_[T9C]_T5.1] | 29.4 nM |
| UCUCUUUGUAUCGCCAUCUCUU (ssRNA) [Ic_S1_P5E.1_K5.1_C5.1_H5.1_A5.1_[T6C]_[A7G]_F5.1_[T8C]_[T9C]_T5.1] | 919 nM |
| UCUCUUUGUACCACCGUCUCUU (ssRNA) [Ic_S1_P5E.1_K5.1_C5.1_H5.1_A5.1_[T5C]_[T6C]_F5.1_[T8C]_[T9C]_[A10G]_T5.1] | 821 nM |
| UCUCUUUUUUUAUAUCUCUU (ssRNA) [Ib_S1_P3E.1_K3.1_C3.1_H3.1_[G2T]_[A4T]_A3.1_F3.1_T3.1] | > 2300 nM |
